Values quoted from earlier work as cited in publication PMC6722209.

What was measured:
[1] = target: IgG1 Fc Fc (Homo sapiens) [IgG part: P01857]; test: fluorescence anisotropy
[2] = target: IgG1 Fc Fc (Homo sapiens) [IgG part: P01857]; test: ITC and SPR

Chain of TRIM21 (P19474 whole entry): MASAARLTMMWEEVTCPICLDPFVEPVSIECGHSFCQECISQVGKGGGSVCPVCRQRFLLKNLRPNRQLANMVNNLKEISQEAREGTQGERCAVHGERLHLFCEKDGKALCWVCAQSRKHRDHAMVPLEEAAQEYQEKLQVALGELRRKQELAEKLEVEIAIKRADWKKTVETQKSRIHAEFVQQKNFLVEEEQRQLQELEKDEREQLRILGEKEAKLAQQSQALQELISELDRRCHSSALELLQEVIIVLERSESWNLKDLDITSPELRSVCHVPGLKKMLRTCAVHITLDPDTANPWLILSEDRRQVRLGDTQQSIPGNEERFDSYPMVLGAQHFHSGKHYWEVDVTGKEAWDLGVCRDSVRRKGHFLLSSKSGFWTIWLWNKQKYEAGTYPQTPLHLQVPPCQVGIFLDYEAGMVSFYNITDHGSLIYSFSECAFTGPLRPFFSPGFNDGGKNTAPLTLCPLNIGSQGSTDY
Chain of TRIM21 PRYSPRY (P19474 268-465): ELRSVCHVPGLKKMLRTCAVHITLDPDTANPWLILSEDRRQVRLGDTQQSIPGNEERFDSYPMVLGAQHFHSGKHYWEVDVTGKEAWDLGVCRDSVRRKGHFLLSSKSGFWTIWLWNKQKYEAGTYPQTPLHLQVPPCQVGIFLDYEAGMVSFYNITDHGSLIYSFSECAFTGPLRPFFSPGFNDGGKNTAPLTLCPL

Q: For TRIM21 (from UniProt P19474), which Kd [1] is on record?
A: 0.6 nM

Q: With TRIM21 PRYSPRY (from UniProt P19474) as the substance, how does the Kd [2] read?
A: 175 nM
